The target in assay [1] is 3H-gabapentin. Nature of the assay: 3H-gabapentin radioligand saturation binding. The following applies: DRM fractions from transfected tsA-201 cells; n = 4.
The target of assay [2] is GFP-CaV2.2 (rabbit CaV2.2 with an N-terminal GFP) (rabbit) (UniProt Q05152).
Chain of UniProt Q05152 (Q05152 whole entry): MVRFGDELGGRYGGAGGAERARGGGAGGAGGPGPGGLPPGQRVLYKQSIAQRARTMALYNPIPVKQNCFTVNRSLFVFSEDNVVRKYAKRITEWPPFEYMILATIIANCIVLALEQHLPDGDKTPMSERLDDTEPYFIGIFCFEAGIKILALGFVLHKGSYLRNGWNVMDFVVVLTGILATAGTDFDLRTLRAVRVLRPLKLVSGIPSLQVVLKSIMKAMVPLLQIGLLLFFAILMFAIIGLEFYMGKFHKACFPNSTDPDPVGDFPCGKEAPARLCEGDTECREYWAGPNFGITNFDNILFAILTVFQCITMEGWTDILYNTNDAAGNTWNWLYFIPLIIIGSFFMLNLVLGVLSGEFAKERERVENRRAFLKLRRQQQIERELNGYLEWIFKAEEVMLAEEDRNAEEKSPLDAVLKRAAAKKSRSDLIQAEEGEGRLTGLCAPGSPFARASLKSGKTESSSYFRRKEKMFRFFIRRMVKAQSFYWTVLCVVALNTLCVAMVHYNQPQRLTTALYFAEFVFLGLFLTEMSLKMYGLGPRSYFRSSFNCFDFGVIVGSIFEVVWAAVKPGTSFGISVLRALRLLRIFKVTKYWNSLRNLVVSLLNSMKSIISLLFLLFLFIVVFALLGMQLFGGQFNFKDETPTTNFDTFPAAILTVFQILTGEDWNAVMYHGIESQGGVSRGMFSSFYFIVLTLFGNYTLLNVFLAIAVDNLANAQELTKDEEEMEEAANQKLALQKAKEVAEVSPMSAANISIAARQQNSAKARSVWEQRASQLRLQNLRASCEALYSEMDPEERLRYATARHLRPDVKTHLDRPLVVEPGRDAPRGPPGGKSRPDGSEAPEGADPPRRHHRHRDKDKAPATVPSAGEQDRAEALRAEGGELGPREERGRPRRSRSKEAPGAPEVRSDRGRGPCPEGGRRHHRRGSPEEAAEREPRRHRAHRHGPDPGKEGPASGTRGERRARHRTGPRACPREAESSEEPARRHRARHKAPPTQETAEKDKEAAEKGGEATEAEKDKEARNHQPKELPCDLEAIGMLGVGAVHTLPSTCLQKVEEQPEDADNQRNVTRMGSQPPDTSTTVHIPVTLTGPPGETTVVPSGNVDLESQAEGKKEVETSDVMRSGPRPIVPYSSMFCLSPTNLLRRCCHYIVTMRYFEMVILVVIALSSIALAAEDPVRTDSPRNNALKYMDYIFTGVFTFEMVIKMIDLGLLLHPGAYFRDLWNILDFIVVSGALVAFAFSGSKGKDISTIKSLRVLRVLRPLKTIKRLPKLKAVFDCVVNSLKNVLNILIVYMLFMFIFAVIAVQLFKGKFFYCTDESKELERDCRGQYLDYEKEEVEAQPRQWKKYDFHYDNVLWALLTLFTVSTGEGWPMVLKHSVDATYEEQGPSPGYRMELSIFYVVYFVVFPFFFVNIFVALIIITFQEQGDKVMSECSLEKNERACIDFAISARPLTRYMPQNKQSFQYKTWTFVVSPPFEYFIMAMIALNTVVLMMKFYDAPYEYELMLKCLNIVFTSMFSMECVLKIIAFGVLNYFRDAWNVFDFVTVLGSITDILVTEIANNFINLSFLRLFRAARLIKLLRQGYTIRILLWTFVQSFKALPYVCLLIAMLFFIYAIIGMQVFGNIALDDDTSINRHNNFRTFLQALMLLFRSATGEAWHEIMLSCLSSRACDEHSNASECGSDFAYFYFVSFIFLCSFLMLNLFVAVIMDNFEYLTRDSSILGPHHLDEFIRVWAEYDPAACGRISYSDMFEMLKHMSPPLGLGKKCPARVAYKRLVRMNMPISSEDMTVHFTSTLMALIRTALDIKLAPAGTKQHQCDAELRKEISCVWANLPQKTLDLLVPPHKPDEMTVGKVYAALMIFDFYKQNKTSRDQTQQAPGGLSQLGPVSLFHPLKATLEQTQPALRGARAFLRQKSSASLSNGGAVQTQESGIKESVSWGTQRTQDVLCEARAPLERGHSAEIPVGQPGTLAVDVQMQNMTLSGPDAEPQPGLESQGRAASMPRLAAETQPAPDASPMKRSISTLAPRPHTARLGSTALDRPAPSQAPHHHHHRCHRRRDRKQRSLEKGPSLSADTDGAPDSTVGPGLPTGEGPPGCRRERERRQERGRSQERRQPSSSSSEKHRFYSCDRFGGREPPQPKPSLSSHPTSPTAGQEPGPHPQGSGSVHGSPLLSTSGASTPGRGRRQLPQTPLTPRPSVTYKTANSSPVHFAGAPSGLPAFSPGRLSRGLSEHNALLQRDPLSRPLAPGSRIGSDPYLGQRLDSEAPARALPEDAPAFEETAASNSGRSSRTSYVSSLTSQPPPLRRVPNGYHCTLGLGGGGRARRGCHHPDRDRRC

In the case of “wild type α2δ-1 (rat) (from UniProt P54290) LEAVEM replaced by VVVVVV (hexavaline, V6)”, the dissociation constant (Kd) in assay [1] is 68.3 nM. In assay [2], “α2(3C)δ-1 (rat α2δ-1 with the endogenous cleavage motif replaced by a Human Rhinovirus 3C-protease site) (natural protein)” displayed a decrease in α2δ-1 immunostaining in hippocampal neurites after co-transfection with CaV2.2-HA/β1b, α2(3C)δ-1 relative to WT α2δ-1 of 37%.

The values are drawn from publication PMC5092059.
